Data from patent publication US20040053837A1 (LUDWIG INSTITUTE FOR CANCER RESEARCH, published 2004).

Key:
[1] = molecular target: T1, human PDGF alpha-receptor (human, UniProt P16234 24-1089); experiment: competition with 125I-PDGF-BB on PAE-1 cells expressing human PDGF alpha-receptor
T1 construct: whole, on cells; also called PDGF receptor alpha; PDGFR-alpha
Protocol: (§1) Next, full length and truncated PDGF-C were tested for their capacity to bind to human PDGF receptors alpha and beta by analyzing their abilities to compete with PDGF-BB for binding to PDGF receptors. The binding experiments were performed on porcine aortic endothelial-1 (PAE-1) cells stably expressing the human PDGF receptors alpha and beta (Eriksson et al., EMBO J, 1992, 11, 543-550). Binding experiments were performed essentially as in Heldin et al. (EMBO J, 1988, 7:1387-1393). Different concentrations of human full-length and truncated PDGF-C, or human PDGF-BB were mixed with 5 ng/ml of ¹²⁵I-PDGF-BB in binding buffer (PBS containing 1 mg/ml of bovine serum albumin). Aliquots were incubated with the receptor expressing PAE-1 cells plated in 24-well culture dishes on ice for 90 minutes. After three washes with binding buffer, cell-bound ¹²⁵I -PDGF-BB was extracted by lysis of cells in 20 mM Tris-HCl, pH 7.5, 10% glycerol, 1% Triton X-100. The amount of cell bound radioactivity was determined in a gamma-counter. A standard curve for the binding of ¹²⁵I-labeled PDGF BB homodimers to PAE-1 cells expressing PDGF alpha-receptor is shown in FIG. 18. An increasing excess of the unlabeled protein added to the incubations competed efficiently with cell association of the radiolabeled tracer.

human PDGF beta-receptor = molecular target: T2, human PDGF beta-receptor (human, UniProt P09619 33-1106); experiment: direct binding of 125I-labeled truncated PDGF-C to PAE-1 cells expressing PDGF beta receptor
T2 construct: whole, on cells; also called PDGF receptor beta; PDGFR-beta
Protocol: To assess the interactions between truncated PDGF-C and the PDGF alpha and beta receptors, truncated PDGF-C was tested for its capacity to bind to porcine aortic endothelial-1 (PAE-1) cells expressing PDGF alpha or beta receptors, respectively (Eriksson et al., EMBO J, 1992 11:543-550). The binding experiments were performed essentially as described in Heldin et al. (EMBO J, 1988 7:1387-1393). Five micrograms of truncated PDGF-C protein in ten microliters of sodium borate buffer was radiolabeled using the Bolton-Hunter reagent (Amersham) to a specific activity of 4×10⁵ cpm/ng. Different concentrations of radiolabeled truncated PDGF-C, with or without added unlabeled protein, in binding buffer (PBS containing 1 mg/ml of bovine serum albumin) was added to the receptor expressing PAE-1 cells plated in 24-well culture dishes on ice for 90 minutes. After three washes with binding buffer, cell-bound ¹²⁵I-labeled PDGF-C was extracted by lysis of cells in 20 mM Tris-HCl, pH 7.5, 10% glycerol, 1% Triton X-100. The amount of cell-bound radioactivity was determined in a gamma-counter. Non-specific binding was estimated by including a 100-fold molar excess of truncated PDGF-C in some experiments. […] The binding was specific as radiolabeled PDGF-C was quantitatively displaced by a 100-fold molar excess of unlabeled protein.

VEGFR-1-Ig = molecular target: T3, VEGFR-1-Ig (human, UniProt P17948 27-758); experiment: pull-down of 35S-labelled conditioned medium with receptor-Ig on protein A-Sepharose, SDS-PAGE, phosphorimager
T3 construct: extracellular domain; Transiently expressed in 293 EBNA cells and captured on protein A-Sepharose; The construct is cited from Olofsson et al. 1998; also called soluble Ig-fusion protein containing the extracellular domain of human VEGFR-1; not shown: Ig part of the fusion
Protocol: (§2) To assess the interactions between full length and truncated PDGF-C and the VEGF receptors, full length and truncated PDGF-C were tested for their capacity to bind to soluble Ig-fusion proteins containing the extracellular domains of human VEGFR-1, VEGFR-2 and VEGFR-3 (Olofsson et al., Proc. Natl. Acad. Sci. USA, 1998 95:11709-11714). The fusion proteins, designated VEGFR-1-Ig, VEGFR-2-Ig and VEGFR-3-Ig, were transiently expressed in human 293 EBNA cells. All Ig fusion proteins were human VEGFRs. Cells were incubated for 24 hours after transfection, washed with Dulbecco's Modified Eagle Medium (DMEM) containing 0.2% bovine serum albumin and starved for 24 hours. The fusion proteins were then precipitated from the clarified conditioned medium using protein A-Sepharose beads (Pharmacia). The beads were combined with 100 microliters of 10× binding buffer (5% bovine serum albumin, 0.2% Tween 20 and 10 μg/ml heparin) and 900 microliter of conditioned medium from 293 cells that had been transfected with mammalian expression plasmids encoding full length or truncated PDGF-C or control vector, then metabolically labeled with ³⁵S-cysteine and methionine (Promix, Amersham) for 4 to 6 hours. After 2.5 hours, at room temperature, the Sepharose beads were washed 3 times with binding buffer at 4° C., once with phosphate buffered saline and boiled in SDS-PAGE buffer. Labeled proteins that were bound to the Ig-fusion proteins were analyzed by SDS-PAGE under reducing conditions. Radiolabeled proteins were detected using a phosphorimager analyzer.

VEGFR-2-Ig = molecular target: T4, VEGFR-2-Ig (human, UniProt P35968 20-764); experiment: as above
T4 construct: extracellular domain; Transiently expressed in 293 EBNA cells and captured on protein A-Sepharose; also called soluble Ig-fusion protein containing the extracellular domain of human VEGFR-2; not shown: Ig part of the fusion
Protocol: as §2

VEGFR-3-Ig = molecular target: T5, VEGFR-3-Ig (human, UniProt P35916 25-775); experiment: as above
T5 construct: extracellular domain; Transiently expressed in 293 EBNA cells and captured on protein A-Sepharose; also called soluble Ig-fusion protein containing the extracellular domain of human VEGFR-3; not shown: Ig part of the fusion
T5 sequence (looked up): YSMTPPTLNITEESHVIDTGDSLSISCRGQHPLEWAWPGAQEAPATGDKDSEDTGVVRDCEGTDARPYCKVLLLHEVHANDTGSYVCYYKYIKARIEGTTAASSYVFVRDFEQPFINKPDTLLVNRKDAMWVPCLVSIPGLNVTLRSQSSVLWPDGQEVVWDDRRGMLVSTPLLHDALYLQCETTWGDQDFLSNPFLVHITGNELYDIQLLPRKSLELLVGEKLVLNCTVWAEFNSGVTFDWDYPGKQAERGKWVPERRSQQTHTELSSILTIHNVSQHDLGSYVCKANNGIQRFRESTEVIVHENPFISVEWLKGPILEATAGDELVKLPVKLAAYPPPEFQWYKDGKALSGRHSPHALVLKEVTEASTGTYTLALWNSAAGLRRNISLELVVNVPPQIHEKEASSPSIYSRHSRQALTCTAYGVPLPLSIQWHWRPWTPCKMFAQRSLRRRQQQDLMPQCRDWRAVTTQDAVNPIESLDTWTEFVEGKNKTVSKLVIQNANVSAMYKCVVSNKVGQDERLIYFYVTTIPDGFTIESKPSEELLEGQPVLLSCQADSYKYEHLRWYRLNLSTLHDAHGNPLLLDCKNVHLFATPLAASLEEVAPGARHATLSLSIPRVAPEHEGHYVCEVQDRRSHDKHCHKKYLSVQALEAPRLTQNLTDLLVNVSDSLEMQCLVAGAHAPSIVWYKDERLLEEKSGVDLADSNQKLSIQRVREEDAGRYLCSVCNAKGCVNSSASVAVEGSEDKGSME
Protocol: as §2

[2] = molecular target: T1, human PDGF alpha-receptor; experiment: self-displacement standard curve, unlabeled PDGF-BB against 125I-PDGF-BB on PAE-1 cells expressing PDGF alpha-receptor
Protocol: as §1

T1 sequence (P16234 24-1089): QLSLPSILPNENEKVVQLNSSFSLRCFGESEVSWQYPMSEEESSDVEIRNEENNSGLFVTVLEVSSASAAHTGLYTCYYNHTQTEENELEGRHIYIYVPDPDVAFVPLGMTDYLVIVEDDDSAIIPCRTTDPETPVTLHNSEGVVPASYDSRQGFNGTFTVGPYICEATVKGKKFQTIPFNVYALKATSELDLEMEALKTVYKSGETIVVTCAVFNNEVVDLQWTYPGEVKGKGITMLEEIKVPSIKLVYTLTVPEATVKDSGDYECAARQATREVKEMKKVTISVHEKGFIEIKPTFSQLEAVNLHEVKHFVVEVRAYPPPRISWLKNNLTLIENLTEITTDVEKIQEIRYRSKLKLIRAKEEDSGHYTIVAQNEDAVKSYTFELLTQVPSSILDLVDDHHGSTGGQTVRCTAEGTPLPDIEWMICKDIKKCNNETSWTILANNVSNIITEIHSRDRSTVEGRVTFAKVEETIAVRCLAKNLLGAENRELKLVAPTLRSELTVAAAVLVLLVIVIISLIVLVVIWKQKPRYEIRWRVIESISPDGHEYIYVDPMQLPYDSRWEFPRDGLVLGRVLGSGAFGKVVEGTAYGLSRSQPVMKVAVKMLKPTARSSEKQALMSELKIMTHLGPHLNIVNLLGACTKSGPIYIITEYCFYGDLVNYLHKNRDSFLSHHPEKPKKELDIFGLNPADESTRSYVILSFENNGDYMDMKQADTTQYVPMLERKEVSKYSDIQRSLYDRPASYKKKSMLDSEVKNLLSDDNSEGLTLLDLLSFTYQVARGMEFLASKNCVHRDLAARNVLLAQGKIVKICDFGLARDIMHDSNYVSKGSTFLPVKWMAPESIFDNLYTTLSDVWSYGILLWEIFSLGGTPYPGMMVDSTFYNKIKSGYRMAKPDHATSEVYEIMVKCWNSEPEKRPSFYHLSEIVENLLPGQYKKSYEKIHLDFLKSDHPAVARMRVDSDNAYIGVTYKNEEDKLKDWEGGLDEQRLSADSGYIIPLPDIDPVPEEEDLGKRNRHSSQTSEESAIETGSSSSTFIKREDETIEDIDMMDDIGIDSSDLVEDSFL
T4 sequence (P35968 20-764): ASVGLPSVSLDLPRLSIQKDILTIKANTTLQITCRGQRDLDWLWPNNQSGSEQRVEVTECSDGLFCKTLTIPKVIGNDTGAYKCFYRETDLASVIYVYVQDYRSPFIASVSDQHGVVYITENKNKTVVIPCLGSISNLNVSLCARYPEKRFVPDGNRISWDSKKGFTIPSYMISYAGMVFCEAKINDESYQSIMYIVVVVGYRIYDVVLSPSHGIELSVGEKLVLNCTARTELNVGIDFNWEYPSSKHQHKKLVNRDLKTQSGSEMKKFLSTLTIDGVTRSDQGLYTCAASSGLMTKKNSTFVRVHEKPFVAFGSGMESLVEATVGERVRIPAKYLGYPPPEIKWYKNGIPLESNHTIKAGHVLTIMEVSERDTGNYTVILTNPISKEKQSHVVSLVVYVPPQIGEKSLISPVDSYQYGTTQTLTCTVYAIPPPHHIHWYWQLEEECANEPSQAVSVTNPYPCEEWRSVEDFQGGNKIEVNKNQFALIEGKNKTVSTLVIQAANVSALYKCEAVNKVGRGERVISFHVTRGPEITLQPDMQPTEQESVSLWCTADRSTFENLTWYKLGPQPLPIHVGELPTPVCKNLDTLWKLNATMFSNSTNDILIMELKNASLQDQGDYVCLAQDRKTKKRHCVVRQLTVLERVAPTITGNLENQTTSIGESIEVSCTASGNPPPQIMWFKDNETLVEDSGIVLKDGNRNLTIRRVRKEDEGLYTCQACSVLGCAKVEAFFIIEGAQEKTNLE
T3 sequence (P17948 27-758): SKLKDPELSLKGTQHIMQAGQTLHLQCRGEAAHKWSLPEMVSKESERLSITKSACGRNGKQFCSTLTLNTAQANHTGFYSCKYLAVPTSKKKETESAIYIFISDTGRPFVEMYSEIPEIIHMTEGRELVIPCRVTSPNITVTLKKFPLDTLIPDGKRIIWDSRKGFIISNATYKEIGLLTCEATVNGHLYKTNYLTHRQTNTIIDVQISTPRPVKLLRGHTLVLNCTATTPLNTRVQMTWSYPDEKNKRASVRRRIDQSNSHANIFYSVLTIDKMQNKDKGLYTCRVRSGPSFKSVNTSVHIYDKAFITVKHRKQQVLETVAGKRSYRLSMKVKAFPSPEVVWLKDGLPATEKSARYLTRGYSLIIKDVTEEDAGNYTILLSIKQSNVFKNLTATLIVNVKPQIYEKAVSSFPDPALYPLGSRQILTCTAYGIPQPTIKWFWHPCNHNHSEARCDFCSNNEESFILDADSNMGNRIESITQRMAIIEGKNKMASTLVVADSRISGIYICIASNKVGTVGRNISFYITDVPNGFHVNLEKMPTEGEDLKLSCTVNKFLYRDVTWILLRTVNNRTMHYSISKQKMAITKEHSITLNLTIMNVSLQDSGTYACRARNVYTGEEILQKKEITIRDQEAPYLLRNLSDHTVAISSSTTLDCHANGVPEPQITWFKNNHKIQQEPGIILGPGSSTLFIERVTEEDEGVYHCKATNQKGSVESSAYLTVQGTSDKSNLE
T2 sequence (P09619 33-1106): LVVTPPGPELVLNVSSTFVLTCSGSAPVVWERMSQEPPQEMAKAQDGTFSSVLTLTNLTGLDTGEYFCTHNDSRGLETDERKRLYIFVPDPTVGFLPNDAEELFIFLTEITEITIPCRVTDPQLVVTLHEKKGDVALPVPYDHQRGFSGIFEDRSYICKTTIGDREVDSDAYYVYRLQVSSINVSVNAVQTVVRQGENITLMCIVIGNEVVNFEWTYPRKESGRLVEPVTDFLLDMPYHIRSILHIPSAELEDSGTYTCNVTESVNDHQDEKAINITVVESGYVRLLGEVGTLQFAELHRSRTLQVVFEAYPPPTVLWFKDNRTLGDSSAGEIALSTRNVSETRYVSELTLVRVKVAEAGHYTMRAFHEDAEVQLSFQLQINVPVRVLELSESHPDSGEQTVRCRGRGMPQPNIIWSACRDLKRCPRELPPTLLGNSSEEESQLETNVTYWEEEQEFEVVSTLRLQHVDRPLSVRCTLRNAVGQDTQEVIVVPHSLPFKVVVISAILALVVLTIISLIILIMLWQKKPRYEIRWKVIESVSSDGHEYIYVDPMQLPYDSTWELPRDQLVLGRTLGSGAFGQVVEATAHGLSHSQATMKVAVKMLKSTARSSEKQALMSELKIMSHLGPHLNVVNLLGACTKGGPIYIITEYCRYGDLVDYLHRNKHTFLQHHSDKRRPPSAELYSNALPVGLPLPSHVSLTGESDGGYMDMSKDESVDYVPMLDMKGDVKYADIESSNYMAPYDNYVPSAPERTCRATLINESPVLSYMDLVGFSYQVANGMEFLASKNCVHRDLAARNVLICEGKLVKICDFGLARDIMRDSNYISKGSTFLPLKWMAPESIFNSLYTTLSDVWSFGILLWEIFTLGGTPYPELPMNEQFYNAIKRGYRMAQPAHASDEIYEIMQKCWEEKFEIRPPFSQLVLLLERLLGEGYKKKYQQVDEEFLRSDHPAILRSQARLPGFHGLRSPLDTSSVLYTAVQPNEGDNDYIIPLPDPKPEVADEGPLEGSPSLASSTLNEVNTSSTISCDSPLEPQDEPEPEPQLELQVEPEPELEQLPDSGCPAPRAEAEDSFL

B1: truncated human PDGF-CC homodimer, PDGF/VEGF homology domain only (core domain, residues 230-345; recombinant, baculovirus-infected Sf9 cells, C-terminal … (ligand, not shown: small tags and cut ends)
chain: GRKSRVVDLNLLTEEVRLYSCTPRNFSVSIREELKRTDTIFWPGCLLVKRCGGNCACCLHNCNECQCVPSKVTKKYHEVLQLRPKTGVRGLHKSLTDVALEHHEECDCVCRGSTGG
notes: Secreted disulfide-bonded dimer (36 kDa non-reduced, 24 kDa monomer); also called cPDGF-CC; truncated PDGF-C
binding result [1]: binds | binding result (human PDGF beta-receptor): no binding

B2: truncated human PDGF-C expressed in 293 cells from a mammalian expression plasmid (35S-labelled conditioned medium) (ligand)
chain: B1 chain
notes: also called truncated PDGF-C; radiolabeled PDGF-C
binding result (VEGFR-1-Ig): no binding | binding result (VEGFR-2-Ig): no binding | binding result (VEGFR-3-Ig): no binding

B3: human PDGF-BB homodimer (ligand, UniProt P01127 82-190, looked up)
chain: SLGSLTIAEPAMIAECKTRTEVFEISRRLIDRTNANFLVWPPCVEVQRCSGCCNNRNVQCRPTQVQLRPVQVRKIEIVRKKPIFKKATVTLEDHLACKCETVAAARPVT
modifications: 125I label on the tracer form
notes: also called labeled PDGF-BB
binding result [2]: binds
